Values of other authors, collected in patent US9012177B2, “Methods and compositions for improving sugar transport, mixed sugar fermentation, and production of biofuels” (The Regents of the University of California, priority 2009, dated 2015).
Where two headings read alike, the source gives them in different places.

Details: saturated xylitol, Watanabe et al. (2005b)

B1: psXDH (protein, UniProt P22144 1-363, looked up)
D-xylulose reductase: MTANPSLVLNKIDDISFETYDAPEISEPTDVLVQVKKTGICGSDIHFYAHGRIGNFVLTKPMVLGHESAGTVVQVGKGVTSLKVGDNVAIEPGIPSRFSDEYKSGHYNLCPHMAFAATPNSKEGEPNPPGTLCKYFKSPEDFLVKLPDHVSLELGALVEPLSVGVHASKLGSVAFGDYVAVFGAGPVGLLAAAVAKTFGAKGVIVVDIFDNKLKMAKDIGAATHTFNSKTGGSEELIKAFGGNVPNVVLECTGAEPCIKLGVDAIAPGGRFVQVGNAAGPVSFPITVFAMKELTLFGSFRYGFNDYKTAVGIFDTNYQNGRENAPIDFEQLITHRYKFKDAIEAYDLVRAGKGAVKCLIDGPE
- Km (NAD+): 381 µM
- kcat (NAD+): 17.5 s⁻¹
- kcat (NADP+): 1.83 s⁻¹
